Data as given in article PMC10801562 (Antibodies, 2024).

T1: recombinant human CD3ε-CD3δ heterodimeric protein (CD3εδ) (Homo sapiens)
T1 construct: human CD3ε of the recombinant CD3εδ heterodimer; human CD3δ of the recombinant CD3εδ heterodimer; source: in-house prepared
T1 chain 1: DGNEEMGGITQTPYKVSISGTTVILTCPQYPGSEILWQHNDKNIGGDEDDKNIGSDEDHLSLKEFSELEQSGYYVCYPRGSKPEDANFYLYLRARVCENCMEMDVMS
T1 chain 2: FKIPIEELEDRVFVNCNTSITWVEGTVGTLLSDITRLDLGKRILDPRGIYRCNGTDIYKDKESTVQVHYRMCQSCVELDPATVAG


Target: T1, recombinant human CD3ε-CD3δ …
Assay: SPR; Biacore T200, 37 °C, pH 7.4, PB-P+; antibody captured (630 RU) by anti-mouse IgG (Fc) antibody on a CM4 chip; human CD3εδ as analyte, 1.2-4800 nmol/L; 1:1 binding model (mUCHT1, mSP34)
Settings: both partners purified

Binder	Kd
mSP34 mIgG2a V1+C19, homodimeric antibody with FAST-Ig V1+C19 mutations (antibody, V domains shown, VH of mSP34; mouse IgG2a (mIgG2a) heavy chain constant region; numbers count on: Eu numbering; VL (lambda) of mSP34; mouse lambda light chain constant region (CL); numbers count on: Kabat numbering; Whole IgG of one HC and one LC; also called anti-CD3; H2L2H2L2; source: Expi293F, transiently expressed, purified (Ab-Capcher MAG2, MonoSpin ProA or MonoSpin ProG); copies: 2 + 2) VH: EVQLVESGGGLVQPKGSLKLSCAASGFTFNTYAMNWVREAPGKGLEWVARIRSKYNNYATYYADSVKDRFTISRDDSQSILYLQMNNLKTEDTAMYYCVRHGNFGNSYVSWFAYWGQGTLVTVSA VL: QAVVTQESALTTSPGETVTLTCRSSTGAVTTSNYANWVQKKPDHLFTGLIGGTNKRAPGVPARFSGSLIGDKAALTITGAQTEDEAIYFCALWYSNLWVFGGGTKLTVL	25.7 nM
mUCHT1 mIgG2a V1+C19, homodimeric antibody with FAST-Ig V1+C19 mutations (antibody, V domains shown, VH of mUCHT1; mouse IgG2a (mIgG2a) heavy chain constant region; numbers count on: Eu numbering; VL of mUCHT1; mouse kappa light chain constant region (CL); numbers count on: Kabat numbering; Whole IgG of one HC and one LC; also called anti-CD3; H2L2H2L2; source: Expi293F, transiently expressed, purified (Ab-Capcher MAG2, MonoSpin ProA or MonoSpin ProG); copies: 2 + 2) VH: EVQLQQSGPELVKPGASMKISCKASGYSFTGYTMNWVKESHGKNLEWMGLINPYKGVSTYNQKFKDKATLTVDKSSSTAYMELLSLTSEDSAVYYCARSGYYGDSDWYFDVWGQGTTLTVFS VL: DIQMTQTTSSLSASLGDRVTISCRASQDIRNYLNWYQKKPDGTVKLLIYYTSRLHSGVPSKFSGSGSGTDYSLTISNLEQEDIATYFCQQGNTLPWTFAGGTKLEIK	1.32 nM
mSP34 mIgG1, homodimeric antibody without FAST-Ig mutations (antibody, V domains shown, VH of the original mouse antibody mSP34; mouse IgG1 (mIgG1) heavy chain constant region; numbers count on: Eu numbering; VL (lambda) of the original mouse antibody mSP34; mouse lambda light chain constant region (CL); Whole IgG of one HC and one LC; also called anti-CD3; H2L2H2L2; source: Expi293F, transiently expressed, purified (Ab-Capcher MAG2 or MonoSpin ProG); copies: 2 + 2) VH: EVQLVESGGGLVQPKGSLKLSCAASGFTFNTYAMNWVRQAPGKGLEWVARIRSKYNNYATYYADSVKDRFTISRDDSQSILYLQMNNLKTEDTAMYYCVRHGNFGNSYVSWFAYWGQGTLVTVSA VL: QAVVTQESALTTSPGETVTLTCRSSTGAVTTSNYANWVQEKPDHLFTGLIGGTNKRAPGVPARFSGSLIGDKAALTITGAQTEDEAIYFCALWYSNLWVFGGGTKLTVL	20.9 nM
mUCHT1 mIgG1, homodimeric antibody without FAST-Ig mutations (antibody, V domains shown, VH of the original mouse antibody mUCHT1; mouse IgG1 (mIgG1) heavy chain constant region; numbers count on: Eu numbering; VL of the original mouse antibody mUCHT1; mouse kappa light chain constant region (CL); Whole IgG of one HC and one LC; also called anti-CD3; H2L2H2L2; source: Expi293F, transiently expressed, purified (Ab-Capcher MAG2 or MonoSpin ProG); copies: 2 + 2) VH: EVQLQQSGPELVKPGASMKISCKASGYSFTGYTMNWVKQSHGKNLEWMGLINPYKGVSTYNQKFKDKATLTVDKSSSTAYMELLSLTSEDSAVYYCARSGYYGDSDWYFDVWGQGTTLTVFS VL: DIQMTQTTSSLSASLGDRVTISCRASQDIRNYLNWYQQKPDGTVKLLIYYTSRLHSGVPSKFSGSGSGTDYSLTISNLEQEDIATYFCQQGNTLPWTFAGGTKLEIK	1.45 nM
